Results published in US20220153832A1 (PIONYR IMMUNOTHERAPEUTICS, published 2022).

T1: human MARCO (R&D biosystems), recombinant, coated in the LDL competition assay (human, UniProt Q9UEW3 70-520, limits assumed)
T1 construct: Bought protein
T1 sequence (looked up): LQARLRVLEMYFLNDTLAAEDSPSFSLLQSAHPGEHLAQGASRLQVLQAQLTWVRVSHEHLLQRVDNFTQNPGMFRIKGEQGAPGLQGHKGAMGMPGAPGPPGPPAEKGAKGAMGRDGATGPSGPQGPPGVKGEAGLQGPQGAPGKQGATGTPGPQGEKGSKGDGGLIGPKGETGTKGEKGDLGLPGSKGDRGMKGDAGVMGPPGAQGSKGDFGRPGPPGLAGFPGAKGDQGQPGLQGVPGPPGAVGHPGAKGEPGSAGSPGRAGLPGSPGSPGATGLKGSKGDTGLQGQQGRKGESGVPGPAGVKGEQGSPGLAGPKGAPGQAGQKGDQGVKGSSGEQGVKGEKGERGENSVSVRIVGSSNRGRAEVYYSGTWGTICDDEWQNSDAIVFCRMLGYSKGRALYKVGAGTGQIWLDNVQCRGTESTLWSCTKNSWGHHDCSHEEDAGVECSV

T2: N-terminally polyhistidine tagged human MARCO ECD (147-520), recombinant (human, UniProt Q9UEW3 147-520)
T2 construct: also called PI-RG-3000; recombinant human MARCO; not shown: N-terminal polyhistidine tag
T2 sequence: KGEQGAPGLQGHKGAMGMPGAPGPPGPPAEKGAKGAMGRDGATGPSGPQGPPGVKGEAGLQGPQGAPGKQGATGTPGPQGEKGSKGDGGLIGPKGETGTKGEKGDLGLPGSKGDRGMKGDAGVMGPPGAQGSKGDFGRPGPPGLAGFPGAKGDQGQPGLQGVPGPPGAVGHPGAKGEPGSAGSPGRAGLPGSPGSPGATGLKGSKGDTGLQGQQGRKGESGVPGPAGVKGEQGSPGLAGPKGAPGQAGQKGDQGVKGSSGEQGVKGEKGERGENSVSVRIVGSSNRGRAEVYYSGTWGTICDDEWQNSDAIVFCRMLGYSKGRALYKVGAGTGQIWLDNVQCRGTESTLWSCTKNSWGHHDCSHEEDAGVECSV


What was measured:
[1] = biological target: T1, human MARCO (R&D biosystems), …; test: LDL competition on coated human MARCO (MSD), competitor biotinylated hLDL
Method: A high-binding, 96-well MSD plate was coated with 4 μg/ml mouse MARCO or 4 μg/ml human MARCO (R&D biosystems). After the plate was blocked with PBST and 5% BSA for an hour, titrated anti-mouse or anti-human MARCO antibodies were added to the plate and incubated for 30 minutes. Biotinylated hLDL (860 pM or 2 μg/ml) were added to the antibody, and the antibody/LDL mixture was incubated for an hour to allow the mixture to reach binding equilibrium. The plates were washed and bound biotinylated LDL was detected with Sulfo-tagged streptavidin that generates an electrocheminlumenscent signal when read buffer is added and electricity is applied to the electrodes in the MSD plate. IC50's were calculated using a 4-parameter curve fit in GraphPad Prism software.
The newly generated rat hybridoma anti-human MARCO antibodies were characterized as previously described. Neither antibody bound to MSR1. Binding kinetics were determined via Multi Cycle Kinetics analysis using the huMARCO antigen as previously described.

[2] = biological target: T2, N-terminally polyhistidine tagged human …; test: ELISA on recombinant human MARCO, 2 mM EDTA
Method: After the plates were incubated at room temperature for 1 hour or 4° C. overnight, the plates were wash 3 times with ELISA wash buffer (PBS/0.05% TWEEN-20), then hybridoma supernatant (1:5 dilution) or purified antibody (1 ug) was diluted in DPBS/Ca2+/2% FBS, DPBS without Ca2+/2 mM EDTA/2% FBS, DPBS without Ca2+/10 mM EDTA/2% FBS, and DPBS without Ca2+/50 mM EDTA/2% FBS. Plates again were incubated at room temperature for 1 hour.

Binder | EC50 [1] [nM] | ELISA signal (A450) [2]
PI-HX-3061 (antibody, rat IgG2a, Parental rat hybridoma, rat IgG2a; cross reactive with human and mouse MARCO) heavy: EVQLVESGGGLVQPGSSLKLSCVASKFTFSNYGMNWIRQAPKKGLEWIALIYYNSNNKYYADSVKGRFTISRDNSKNTLYLEMNSLRSEDTAMYYCAKSLTGGSDYFDSWGQGVMVTVSSAETTAPSVYPLAPGTALKSNSMVTLGCLVKGYFPEPVTVTWNSGALSSGVHTFPAVLQSGLYTLTSSVTVPSSTWPSQTVTCNVAHPASSTKVDKKIVPRNCGGDCKPCICTGSEVSSVFIFPPKPKDVLTITLTPKVTCVVVDISQDDPEVHFSWFVDDVEVHTAQTRPPEEQFNSTFRSVSELPILHQDWLNGRTFRCKVTSAAFPSPIEKTISKPEGRTQVPHVYTMSPTKEEMTQNEVSITCMVKGFYPPDIYVEWQMNGQPQENYKNTPPTMDTDGSYFLYSKLNVKKEKWQQGNTFTCSVLHEGLHNHHTEKSLSHSP light: DVQMTQSPSYLAASPGESVSISCKASKSIGTFLAWYQEKPEKTNKLLIYSGSTLQSGTPSRFSGSGSGTDFTLTIRNLEPEDFAVYYCQQHDEYPFTFGSGTKLEIKRADAAPTVSIFPPSTEQLATGGASVVCLMNNFYPRDISVKWKIDGTERRDGVLDSVTDQDSKDSTYSMSSTLSLTKADYESHNLYTCEVVHKTSSSPVVKSFNRNEC | 8.2 | –
PI-HX-3031 (antibody, Parental rat hybridoma, rat IgG2a) heavy: QVQLKESGPGLVQPSQTLSLTCTVSGFSLTSYHVSWVRQPPGKGLEWMGAIWTGGSIAYNSLLKSRLSISRDTSKSQVFLKMNSLQTEDTATYYCARDLSDYYSSYTSFDYWGQGVMVTVSTAETTAPSVYPLAPGTALKSNSMVTLGCLVKGYFPEPVTVTWNSGALSSGVHTFPAVLQSGLYTLTSSVTVPSSTWSSQAVTCNVAHPASSTKVDKKIVPRECNPCGCTGSEVSSVFIFPPKTKDVLTITLTPKVTCVVVDISQNDPEVRFSWFIDDVEVHTAQTHAPEKQSNSTLRSVSELPIVHRDWLNGKTFKCKVNSGAFPAPIEKSISKPEGTPRGPQVYTMAPPKEEMTQSQVSITCMVKGFYPPDIYTEWKMNGQPQENYKNTPPTMDTDGSYFLYSKLNVKKETWQQGNTFTCSVLHEGLHNHHTEKSLSHSP light: DIQMTQSPASLSTSLGETVSIECLASEGISNDLAWYQQKSGKSPQLLIYAASRLQDGVPSRFSGSGSGTRYSLKISGMQPEDEADYFCQQSYKYPLTFGSGTKLEIKRADAAPTVSIFPPSTEQLATGGASVVCLMNNFYPRDISVKWKIDGTERRDGVLDSVTDQDSKDSTYSMSSTLSLTKADYESHNLYTCEVVHKTSSSPVVKSFNRNEC | 6.2 | 0.0678
PI-HX-3043 (antibody, rat IgG2a, Parental rat hybridoma, rat IgG2a) heavy: QVNLLQSRAALVKPGASVKLSCKASGYTFTDYYLHWVKQSHAKSLEWIGYINPNNAYTSYNEKFKSKATLTVDKSTNTAYMELSRLTSADSATYYCARDTTDYYNLHFAYWGQGTLVTVSSAETTAPSVYPLAPGTALKSNSMVTLGCLVKGYFPEPVTVTWNSGALSSGVHTFPAVLQSGLYTLTSSVTVPSSTWSSQAVTCNVAHPASSTKVDKKIVPRECNPCGCTGSEVSSVFIFPPKTKDVLTITLTPKVTCVVVDISQNDPEVRFSWFIDDVEVHTAQTHAPEKQSNSTLRSVSELPIVHRDWLNGKTFKCKVNSGAFPAPIEKSISKPEGTPRGPQVYTMAPPKEEMTQSQVSITCMVKGFYPPDIYTEWKMNGQPQENYKNTPPTMDTDGSYFLYSKLNVKKETWQQGNTFTCSVLHEGLHNHHTEKSLSHSP light: DIQMTQSPASLSASLGETVSIECLTSEGISNDLAWYQQKSGKSPQLLIYDASRLEDGVPSRFSGSGSGTRYSLKISGMQTEDEADYFCQQSYKYPLTFGSGTKLEIKRADAAPTVSIFPPSTEQLATGGASVVCLMNNFYPRDISVKWKIDGTERRDGVLDSVTDQDSKDSTYSMSSTLSLTKADYESHNLYTCEVVHKTSSSPVVKSFNRNEC | – | 0.0595
